For four molecules, binding result and Kd results are on record in patent publication US20170029530A1 (AbbVie / Abbott, published 2017).

One test deals with T1, mDPEP3 (limits assumed).
T1 construct: also called mouse DPEP3-His; mouse DPEP3 ECD with histidine tag
T1 single chain: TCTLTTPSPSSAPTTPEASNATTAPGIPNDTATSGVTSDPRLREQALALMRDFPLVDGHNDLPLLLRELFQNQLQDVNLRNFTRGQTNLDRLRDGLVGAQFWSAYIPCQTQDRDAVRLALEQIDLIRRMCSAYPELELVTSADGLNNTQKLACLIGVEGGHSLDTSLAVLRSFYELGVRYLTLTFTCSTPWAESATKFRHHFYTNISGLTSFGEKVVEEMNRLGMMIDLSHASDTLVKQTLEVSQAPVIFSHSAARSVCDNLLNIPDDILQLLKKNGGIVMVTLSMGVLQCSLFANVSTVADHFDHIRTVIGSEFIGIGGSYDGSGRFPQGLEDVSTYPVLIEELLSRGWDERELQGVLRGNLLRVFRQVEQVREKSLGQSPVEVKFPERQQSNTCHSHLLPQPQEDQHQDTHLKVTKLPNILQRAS
Briefly: ELISA, coated antigen. For orientation: In an ELISA, binding on a coated surface is turned into a signal by an enzyme label.

Test [1] addresses T2, rat DPEP3 ECD with histidine tag (rat, UniProt Q5U2X4 36-459, limits assumed).
T2 construct: also called rDPEP3-His; ratDPEP3-His; not shown: histidine tag
T2 sequence: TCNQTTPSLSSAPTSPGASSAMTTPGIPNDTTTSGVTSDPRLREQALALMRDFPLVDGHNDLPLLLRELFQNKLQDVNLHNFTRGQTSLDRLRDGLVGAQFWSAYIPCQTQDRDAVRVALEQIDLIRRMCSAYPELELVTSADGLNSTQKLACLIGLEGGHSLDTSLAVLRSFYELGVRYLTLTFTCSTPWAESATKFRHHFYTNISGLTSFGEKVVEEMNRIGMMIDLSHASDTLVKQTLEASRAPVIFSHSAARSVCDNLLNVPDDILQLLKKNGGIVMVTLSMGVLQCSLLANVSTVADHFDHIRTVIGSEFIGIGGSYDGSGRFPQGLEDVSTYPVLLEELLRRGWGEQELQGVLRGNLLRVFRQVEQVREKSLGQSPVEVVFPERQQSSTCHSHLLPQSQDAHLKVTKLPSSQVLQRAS
Briefly: ELISA, coated antigen.

The target in test [2] is T3, hDPEP2 ECD with histidine tag (human, UniProt Q9H4A9 33-463).
T3 construct: also called hDPEP2-His; not shown: histidine tag
Briefly: ELISA, coated antigen.

Test [3] addresses T4, human DPEP3 (hDPEP3) protein on the cell surface (human, UniProt Q9H4B8 36-463, GPI anchor at the C-terminus after removal of the final 25 amino acids).
T4 construct: The assay field says which
T4 sequence: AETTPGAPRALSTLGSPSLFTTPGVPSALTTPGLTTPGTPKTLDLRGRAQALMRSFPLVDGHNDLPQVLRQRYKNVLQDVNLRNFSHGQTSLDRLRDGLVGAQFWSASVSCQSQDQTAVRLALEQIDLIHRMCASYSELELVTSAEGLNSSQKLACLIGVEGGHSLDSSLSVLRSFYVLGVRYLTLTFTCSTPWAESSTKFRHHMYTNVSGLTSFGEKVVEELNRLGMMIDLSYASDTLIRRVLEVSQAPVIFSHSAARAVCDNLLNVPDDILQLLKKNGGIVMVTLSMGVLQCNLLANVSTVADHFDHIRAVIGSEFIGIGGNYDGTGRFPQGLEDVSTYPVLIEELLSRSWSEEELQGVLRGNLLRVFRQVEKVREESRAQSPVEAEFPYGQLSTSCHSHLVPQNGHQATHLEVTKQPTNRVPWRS
Briefly: flow cytometry, HEK-293T cells overexpressing hDPEP3. The procedure: The isolated cells were incubated for 30 mins. with anti-DPEP3 antibodies and washed twice in PBS/2% FCS. The cells were incubated for 15 mins. with 50 μL per sample AlexaFluor-647 labeled goat-anti-mouse IgG, Fc fragment specific secondary antibody diluted 1:200 in PBS/2% FCS, washed twice with PBS/2% FCS and re-suspended in PBS/2% FCS with DAPI ([…]). The cells were analyzed on a BD FACS Canto II flow cytometer with anti-DPEP3 antibodies.

The target in the next test is T5, hDPEP1-His (human, UniProt P16444 17-385, limits assumed).
T5 construct: Neither the origin nor the limits of this protein are described; not shown: histidine tag
T5 sequence (looked up): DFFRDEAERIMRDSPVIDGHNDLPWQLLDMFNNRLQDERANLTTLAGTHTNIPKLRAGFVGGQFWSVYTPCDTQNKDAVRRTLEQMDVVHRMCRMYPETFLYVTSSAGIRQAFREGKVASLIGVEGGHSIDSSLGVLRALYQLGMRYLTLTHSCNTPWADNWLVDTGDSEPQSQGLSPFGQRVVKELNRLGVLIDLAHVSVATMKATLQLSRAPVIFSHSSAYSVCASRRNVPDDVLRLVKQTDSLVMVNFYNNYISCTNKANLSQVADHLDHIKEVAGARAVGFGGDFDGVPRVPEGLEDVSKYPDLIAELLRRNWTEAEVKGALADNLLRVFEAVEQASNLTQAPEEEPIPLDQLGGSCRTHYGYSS
Briefly: SPR, BIAcore 2000, antibody captured with anti-human capture kit. For orientation: SPR reads the build-up and loss of mass on a sensor chip optically.

Test [4] has as its target T2, rat DPEP3 ECD with histidine tag. The test is described as above.
Test [5] addresses T3, hDPEP2 ECD with histidine tag. The description is as above.
For a further test, the target named is T6, cDPEP3 (Macaca fascicularis, UniProt Q4R7M2).
T6 construct: extracellular domain; also called cynomolgus DPEP3-His; cynomolgus DPEP3 ECD with histidine tag
T6 sequence (single chain, looked up): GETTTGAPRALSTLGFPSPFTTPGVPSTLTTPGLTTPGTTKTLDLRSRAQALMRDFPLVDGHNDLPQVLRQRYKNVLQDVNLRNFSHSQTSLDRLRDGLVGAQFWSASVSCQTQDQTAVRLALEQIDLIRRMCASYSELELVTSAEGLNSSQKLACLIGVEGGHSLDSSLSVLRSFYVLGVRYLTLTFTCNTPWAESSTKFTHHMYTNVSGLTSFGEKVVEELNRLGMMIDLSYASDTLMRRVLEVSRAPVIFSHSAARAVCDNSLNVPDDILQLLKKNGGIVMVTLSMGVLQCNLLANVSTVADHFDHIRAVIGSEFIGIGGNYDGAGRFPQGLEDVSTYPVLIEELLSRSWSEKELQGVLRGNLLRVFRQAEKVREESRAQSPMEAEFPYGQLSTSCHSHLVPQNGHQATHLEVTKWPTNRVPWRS
Briefly: ELISA, coated antigen.

Test [6] concerns the target T3, hDPEP2 ECD with histidine tag. Briefly: ELISA, coated antigen, antibody 1 ug/mL. The procedure: The anti-DPEP3 antibodies were screened by ELISA for cross-reactivity with mouse, rat and cynomolgus DPEP3 and for cross reactivity to hDPEP2, the closest DPEP3 family member. ELISA was conducted as follows. Plates were coated with purified mouse, rat or cynomolgus DPEP3-His or hDPEP2-His at 0.3 μg/mL in 0.2 M carbonate-bicarbonate buffer, pH 9.4 overnight at 4° C. The protein solution was removed and the wells were blocked with 1% (w/v) BSA in PBS (PBSA), 100 μL/well for 1 hour at 37° C. Anti-DPEP3 antibody or a mouse isotype control antibody was then added at 1 μg/mL in 50 μL PBSA for 1 hour at room temperature. After washing with water, 50 μL/well HRP-labeled goat anti-mouse IgG antibody diluted 1:10,000 in PBSA was added for 30 min at room temperature. The plates were washed and developed by the addition of 40 μL/well of the TMB substrate solution (Thermo Scientific) at room temperature. An equal volume of 0.2 M H₂SO₄ was added to stop substrate development. The samples were then analyzed by spectrophotometer at OD 450. […] The cross reactivity results for exemplary DPEP3-specific antibodies can be seen in FIG. 4.

The next test deals with T7, hDPEP3-ECD-His (human, UniProt Q9H4B8 36-463).
T7 construct: also called hDPEP3-His; monomeric hDPEP3-His antigen; not shown: histidine tag
T7 sequence: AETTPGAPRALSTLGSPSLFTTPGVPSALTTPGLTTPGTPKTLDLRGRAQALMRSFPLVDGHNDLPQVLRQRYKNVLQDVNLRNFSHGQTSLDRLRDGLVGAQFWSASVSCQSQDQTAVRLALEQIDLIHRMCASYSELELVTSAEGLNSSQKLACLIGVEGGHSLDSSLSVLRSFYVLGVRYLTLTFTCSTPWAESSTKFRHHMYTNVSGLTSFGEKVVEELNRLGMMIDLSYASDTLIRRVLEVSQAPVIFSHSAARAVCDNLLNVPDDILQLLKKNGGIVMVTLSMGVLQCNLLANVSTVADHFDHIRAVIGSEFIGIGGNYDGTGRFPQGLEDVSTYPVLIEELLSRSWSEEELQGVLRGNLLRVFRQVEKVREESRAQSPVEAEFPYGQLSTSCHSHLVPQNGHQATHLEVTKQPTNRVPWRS
The test can be described thus: BLI ForteBio RED, 200 nM hDPEP3-His, estimated grade. The procedure, abridged: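 Antibodies were captured on anti-mouse Fc biosensors to 0.3-1 units, then exposed to hDPEP3-His for a 4 min association and a 3 min dissociation at 1000 rpm. A control mouse IgG response was subtracted, and KD was estimated qualitatively from the curves. Sensors were regenerated with 10 mM glycine, pH 1.7.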

Values joined by “and” are separate entries in the source; they are usually repeats but may differ in a detail not shown here. Equal values may be shown once.

T3 sequence (Q9H4A9 33-463): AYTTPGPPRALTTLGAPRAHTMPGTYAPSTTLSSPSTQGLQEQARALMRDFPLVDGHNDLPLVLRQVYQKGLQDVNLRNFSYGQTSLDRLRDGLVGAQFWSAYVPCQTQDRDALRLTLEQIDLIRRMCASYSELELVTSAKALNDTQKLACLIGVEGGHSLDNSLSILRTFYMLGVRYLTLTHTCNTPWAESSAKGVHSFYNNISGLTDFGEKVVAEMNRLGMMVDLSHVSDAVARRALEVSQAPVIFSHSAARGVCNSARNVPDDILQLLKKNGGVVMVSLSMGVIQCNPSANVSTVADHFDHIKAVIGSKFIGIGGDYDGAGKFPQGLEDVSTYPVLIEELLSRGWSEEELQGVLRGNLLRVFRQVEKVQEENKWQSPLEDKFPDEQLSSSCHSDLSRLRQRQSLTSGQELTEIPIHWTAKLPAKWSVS

B1: SC34.36 (antibody, mouse IgG2a, V domains shown)
VH: QVQLQQPGSVLVRPGASVKLSCKASGYTFTSYWMHWVKQRPGQGLEWIGEISPTSGRPNYNAKFKGKATLTVDTSSSTAYVDLSSLTSEDSAVYYCAKGEGYYGKAFDYWGQGTTLTVSS
VL: DIQMTQTTSSLSASLGDRVTISCRASQDISNYLNWYQQKPDGTVKLLIYYTSRLHSGVPSRFSGSGSGTDYSLTISNLEQEDIATYFCQQGNTLPWTFGGGTKLEIK
As to B1, the binding result with mDPEP3 is reported as “no binding (tested: 1 ug/mL)”; in test [1], “no binding (tested: 1 ug/mL)”; in test [2] it was “no binding (tested: 1 ug/mL)”; in test [3], “binds”.

B2: hSC34.14 humanized anti-DPEP3 antibody (antibody, human IgG1, kappa, V domains shown)
VH: QVQLVQSGAEVKKPGASVKVSCKASGYTFTDYYMHWVRQAPGQRLEWMGRVNPKKGGTTYNQKFEGRVTITRDTSASTAYMELSSLRSEDTAVYYCAMGIYYSYDASFDYWGQGTTVTVSS
VL: DIQMTQSPSSLSASVGDRVTITCRTSEHIYSYLAWYQQKPGKAPKLLIYNAKTLAEGVPSRFSGSGSGTDFTLTISSLQPEDFATYYCQHHYDTPYTFGQGTKLEIKR
notes: Human IgG1/kappa
As for B2, the values for the binding result (with hDPEP1-His; in test [4]; in [5]) were “no binding”, “no binding” and “binds”, respectively.

B3: SC34.11 (antibody, mouse IgG2a, V domains shown)
VH: QVQLQQSGAELAKPGASVKMSCKASGYTFTNYWMIWVKQRPGQGLEWIGYIDPTTDYTAYNQKFKDKATVTADKSSSTAYMQLNSLTSEDSAVYYCARGGNVALDFWGQGTSVTVSS
VL: DIVMSQSPSSLAVSAGEKVTMSCKSSQSLLNSRTRKNYLAWYQQKPGQSPKLLIYWASTRESGVPDRFTGSGSGTDFTLTISSVQAEDLAVYYCKESYNLWTFGGGTKLEIK
What is called Kd is the concentration at which binding is half-saturated. Regarding B3, the binding result is reported as “no binding (tested: 1 ug/mL)” with cDPEP3, “no binding (tested: 1 ug/mL)” in the test with mDPEP3, “no binding (tested: 1 ug/mL)” in [1] and “binds” in test [6]. In addition, in the test with hDPEP3-ECD-His, the Kd was ≥ 5 nM and ≤ 10 nM.

B4: SC34.46 (antibody, mouse IgG1, V domains shown)
VH: QVQLQQSGTELARPGTSVKLSCKASGYTFRSYAISWVRQRTGQGLEWIGEIYPGSDKTYYNESLKGKVTLTTDKCSSTANMQLTSLTSEDSAVYFCARVHDYGSWFPYWGQGTLVTVSA
VL: DIVMSQSPSSLAVSVGEKVTMSCKSSQSLLYSKYQKNFLAWYQQKPGQSPKLLIYWASTRESGVPDRFTGSGSGTDFTLTISNVKAEDLAVYYCQQYYRYPLTFGAGTTLELK
Regarding B4, the binding result in test [6] is given as “binds”. Further, the Kd in the test with hDPEP3-ECD-His was under 5 nM.
